Laboratory results: PMC3368277

Biological target: His-tagged recombinant C0–C1 domains of cardiac myosin binding protein-C (mouse)
Assay: pull-down

Sequence of His-tagged recombinant C0–C1 domains of cardiac myosin binding protein-C (mouse) (O70468 whole entry, the tested form may be a part): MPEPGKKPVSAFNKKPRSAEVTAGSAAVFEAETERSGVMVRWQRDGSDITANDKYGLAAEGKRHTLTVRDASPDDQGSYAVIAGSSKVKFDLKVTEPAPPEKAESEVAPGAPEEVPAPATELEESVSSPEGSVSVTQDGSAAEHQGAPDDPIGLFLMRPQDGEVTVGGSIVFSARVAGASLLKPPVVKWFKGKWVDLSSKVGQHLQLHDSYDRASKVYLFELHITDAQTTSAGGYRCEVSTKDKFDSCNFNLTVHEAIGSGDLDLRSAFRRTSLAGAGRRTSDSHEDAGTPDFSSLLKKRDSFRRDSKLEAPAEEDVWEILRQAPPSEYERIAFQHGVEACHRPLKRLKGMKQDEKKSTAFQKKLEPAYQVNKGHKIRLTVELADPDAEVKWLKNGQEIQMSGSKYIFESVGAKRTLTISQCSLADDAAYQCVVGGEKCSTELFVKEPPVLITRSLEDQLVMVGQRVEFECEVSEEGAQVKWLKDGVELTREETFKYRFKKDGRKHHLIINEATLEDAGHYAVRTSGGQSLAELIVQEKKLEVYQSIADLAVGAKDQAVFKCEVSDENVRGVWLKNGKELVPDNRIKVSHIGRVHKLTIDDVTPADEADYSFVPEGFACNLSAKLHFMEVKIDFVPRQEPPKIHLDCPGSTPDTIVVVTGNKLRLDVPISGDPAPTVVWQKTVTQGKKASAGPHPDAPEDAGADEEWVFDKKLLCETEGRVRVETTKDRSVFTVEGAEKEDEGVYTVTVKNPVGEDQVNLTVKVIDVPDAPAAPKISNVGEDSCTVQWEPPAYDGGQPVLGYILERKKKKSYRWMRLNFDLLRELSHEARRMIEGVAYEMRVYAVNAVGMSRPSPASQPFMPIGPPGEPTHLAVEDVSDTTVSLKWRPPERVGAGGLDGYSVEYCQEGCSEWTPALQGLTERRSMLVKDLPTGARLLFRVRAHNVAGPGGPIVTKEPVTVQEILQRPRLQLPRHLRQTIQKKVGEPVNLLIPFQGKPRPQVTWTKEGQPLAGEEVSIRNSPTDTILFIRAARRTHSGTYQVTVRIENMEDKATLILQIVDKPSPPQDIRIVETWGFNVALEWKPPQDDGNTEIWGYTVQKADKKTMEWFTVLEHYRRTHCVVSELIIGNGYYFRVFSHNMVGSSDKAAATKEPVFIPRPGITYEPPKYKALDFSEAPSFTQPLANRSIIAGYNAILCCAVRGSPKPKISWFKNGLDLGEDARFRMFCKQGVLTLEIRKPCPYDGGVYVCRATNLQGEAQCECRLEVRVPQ

For “sarcomeric actin (from UniProt P68033 1-377) (natural protein)”, the reduction of binding against C0–C2 (quantified blot) was 50%.
